Reference: patent US20250262244A1 (published 2025)

T1: EWSR1/WT1 fusion protein (junction of EWS and WT1) peptide on HLA-A*03 (human)
T1 peptide: SSYGQQSEK

T2: EWSR1/WT1 fusion protein (junction of EWS and WT1) peptide on HLA-A*11 (human)
T2 peptide: SSYGQQSEK

B1: TCR15 (TCR, V domains shown)
Valpha: QKEVEQDPGPLSVPEGAIVSLNCTYSNSAFQYFMWYRQYSRKGPELLMYTYSSGNKEDGRFTAQVDKSSKYISLFIRDSQPSDSATYLCAMGGGSNYKLTFGKGTLLTVNP
Vbeta: DSGVTQTPKHLITATGQRVTLRCSPRSGDLSVYWYQQSLDQGLQFLIQYYNGEERAKGNILERFSAQQFPDLHSELNLSSLELGDSALYFCASSPPGQTNYGYTFGSGTRLTVV
B2: TCR12 (TCR, V domains shown)
Valpha: AQKVTQAQTEISVVEKEDVTLDCVYETRDTTYYLFWYKQPPSGELVFLIRRNSFDEQNEISGRYSWNFQKSTSSFNFTITASQVVDSAVYFCALSEMQGGSEKLVFGKGTKLTVNP
Vbeta: DSGVTQTPKHLITATGQRVTLRCSPRSGDLSVYWYQQSLDQGLQFLIHYYNGEERAKGNILERFSAQQFPDLHSELNLSSLELGDSALYFCASSTSSGSPDTQYFGPGTRLTVL
B3: TCR14 (TCR, V domains shown)
Valpha: GQQLNQSPQSMFIQEGEDVSMNCTSSSIFNTWLWYKQDPGEGPVLLIALYKAGELTSNGRLTAQFGITRKDSFLNISASIPSDVGIYFCAGQGASGTYKYIFGTGTRLKVLA
Vbeta: DAGVIQSPRHEVTEMGQEVTLRCKPISGHNSLFWYRQTMMRGLELLIYFNNNVPIDDSGMPEDRFSAKMPNASFSTLKIQPSEPRDSAVYFCASSPGTSDEFFGPGTRLTVL

How the values were obtained:
[1] = target: T1, EWSR1/WT1 fusion protein (junction of …); assay: cytokine release
[2] = target: T2, EWSR1/WT1 fusion protein (junction of …); assay: cytokine release
[3] = target: T1, EWSR1/WT1 fusion protein (junction of …); assay: multimer staining

Binder	binding result [1]	binding result [2]	binding result [3]
B1	recognises	recognises	
B2			recognises
B3			recognises
